According to patent US20090318342A1, “Compounds” (IMPERIAL INNOVATIONS LIMITED, priority 2005, published 2009):

Target: T1, human ADAMTS-4 lacking the C-terminal spacer domain (Homo sapiens, UniProt O75173)
T1 construct: Recombinant human ADAMTS-4 lacking the C-terminal spacer domain; made in house
T1 sequence (O75173 213-685 limits assumed): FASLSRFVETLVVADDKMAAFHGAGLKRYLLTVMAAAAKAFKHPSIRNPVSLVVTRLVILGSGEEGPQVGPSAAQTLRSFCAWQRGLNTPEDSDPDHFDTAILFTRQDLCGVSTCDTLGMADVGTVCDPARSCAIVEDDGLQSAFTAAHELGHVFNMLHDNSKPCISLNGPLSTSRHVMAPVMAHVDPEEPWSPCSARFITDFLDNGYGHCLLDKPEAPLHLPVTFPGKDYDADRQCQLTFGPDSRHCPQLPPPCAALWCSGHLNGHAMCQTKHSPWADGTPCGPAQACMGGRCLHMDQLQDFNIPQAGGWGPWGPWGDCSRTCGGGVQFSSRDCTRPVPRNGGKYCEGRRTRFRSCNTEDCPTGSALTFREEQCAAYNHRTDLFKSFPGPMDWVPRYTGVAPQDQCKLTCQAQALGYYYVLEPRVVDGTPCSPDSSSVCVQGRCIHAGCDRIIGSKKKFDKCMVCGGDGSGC
Experiment: ADAMTS-4 inhibition, bovine aggrecan digestion, anti-GELE Western blot
Type: biochemical
Conditions: 0.5 nM ADAMTS-4, 1 mg/ml bovine aggrecan, 37° C., 2 h; read-out: Ki(app) ADAMTS-4
Procedure: ADAMTS-4 lacking the spacer domain (0.5 nM) was incubated with N-TIMP-3 mutants at the concentration indicated for 30 min and then incubated with 1 mg/ml of bovine aggrecan at pH 7.5 for 2 h at 37° C. The reaction was terminated with 10 mM EDTA and samples were deglycosylated and subjected to Western blotting analysis using antibodies that recognise the fragments with the C-terminal GELE1480 as described by Little et al. The bands were quantified by densitometric analyses.
Recombinant human ADAMTS-4 lacking the C-terminal spacer domain was prepared and expressed as described (Kashimagi, M. et al. J. Biol. Chem. 279, 10109-10119, 2004), and bovine cartilage aggrecan was purified according to Hascall and Sajdesa (J. Biol. Chem. 244, 2384-2396, 1969). Antibody that recognized the fragment with the C-terminal GELE was described by Kashiwagi et al (2004). To examine the inhibition of ADAMTS-4 by (-1A) N-TIMP-3 and N-TIMP-3(T2G), 0.5 nM ADAMTS-4 was incubated with a various concentration of the inhibitor for 30 mins at room temperature and then with 1 mg/ml of bovine aggrecan at 37° C. for 2 h. […] The products were then precipated with 10 vol. of acetone and subjected to Western blotting analysis with the anti-GELE antibody as primary antibody and developed as described by Little et al. The staining intensity of the band was quantified by densitometric analysis.

Ki: 18 nM
B1: -1A: N-TIMP-3 mutant with the addition of an N-terminal alanine extension (-1A) (protein)
chain: ACTCSPSHPQDAFCNSDIVIRAKVVGKKLVKEGPFGTLVYTIKQMKMYRGFTKMPHVQYIHTEASESLCGLKLEVNKYQYLLTGRVYDGKMYTGLCNFVERWDQLTLSQRKGLNYRYHLGCN
